In patent US20230201308A1, “TREATMENT OF CORONAVIRUS INFECTION WITH […]” (Eiger Biopharmaceuticals, Inc., priority 2020, published 2023):
Like-named read-outs stand apart in the source and are kept apart here.

Test system: SARS-CoV-2
[1] = High risk population, Brazil and Toronto, N = 709
[2] = High risk population, Brazil and Toronto, N = 709 vs placebo N = 836
[3] = High risk population, Brazil, N = 698

B1: pegylated interferon lambda-1a (protein)
chain: MKPTTTGKGCHIGRFKSLSPQELASFKKARDALEESLKLKNWSCSSPVFPGNWDLRLLQVRERPVALEAELALTLKVLEAAAGPALEDVLDQPLHTLHHILSQLQACIQPQPTAGPRPRGRLHHWLHRLQEAPKKESAGCLEASVTFNLFRLLTRDLKYVADGNLSLRTSTHPEST
modifications: PEG
notes: 180 mcg subcutaneous injection
ER visit ≥6 h or hospitalization due to COVID-19: events/patients (All): 25/931 | All cause death or hospitalization for COVID-19: events/patients (All, Brazil+Toronto): 24/931 | All cause death or hospitalization for COVID-19: Bayes prob, Dichotomous (All, vs placebo): 0.951 | All cause death or hospitalization for COVID-19: Bayes prob, TTE (All, vs placebo): 0.9557 | All cause death or hospitalization for COVID-19: HR (95% CrI), TTE (All, vs placebo): 0.65 (0.39, 1.05) | All cause death or hospitalization for COVID-19: RR (95% CrI), Dichotomous (All, vs placebo): 0.66 (0.40, 1.07) | ER visit ≥6 h or hospitalization due to COVID-19: Bayes prob, Dichotomous (All, vs placebo): 0.999 | ER visit ≥6 h or hospitalization due to COVID-19: Bayes prob, TTE (All, vs placebo): 0.9995 | ER visit ≥6 h or hospitalization due to COVID-19: HR (95% CrI), TTE (All, vs placebo): 0.47 (0.29, 0.73) | ER visit ≥6 h or hospitalization due to COVID-19: RR (95% CrI), Dichotomous (All, vs placebo): 0.49 (0.30, 0.76) | HR, all-cause mortality or hospitalization due to COVID-19, Time-to-Event analysis (Brazil+Toronto combined): 0.65 | RR, all-cause mortality or hospitalization due to COVID-19 (Brazil+Toronto combined): 0.66 | All cause ER visit >6 h, hospitalization, or death: percentage [1]: (4.2%) | All cause ER visit >6 h, hospitalization, or death: total [1]: 30 | All cause ER visit, hospitalization, or death: percentage [1]: (13.7%) | All cause ER visit, hospitalization, or death: total [1]: 97 | All cause death or hospitalization due to COVID-19: percentage [1]: (3.1%) | All cause death or hospitalization due to COVID-19: total [1]: 22 | Days of hospitalization [1]: 0 days | Days on mechanical ventilation [1]: 0 days | Days to recovery: median [1]: 14 days | Death due to COVID-19: percentage [1]: (0.1%) | Death due to COVID-19: total [1]: 1 | Death or hospitalization due to COVID-19: percentage [1]: (2.8%) | Death or hospitalization due to COVID-19: total [1]: 20 | Hospitalization for COVID-19 (excluding those resulting in death): percentage [1]: (2.7%) | Hospitalization for COVID-19 (excluding those resulting in death): total [1]: 19 | Hospitalization or ER (any duration) for COVID-19: percentage [1]: (10.7%) | Hospitalization or ER (any duration) for COVID-19: total [1]: 76 | Hospitalization or ER >6 h for COVID-19: percentage [1]: (3.1%) | Hospitalization or ER >6 h for COVID-19: total [1]: 22 | Mechanical ventilation: percentage [1]: (0.6%) | Mechanical ventilation: total [1]: 4 | All cause ER visit >6 h, hospitalization, or death: Pr (Superiority) [2]: 0.983 | All cause ER visit >6 h, hospitalization, or death: RR (95% CrI), estimated treatment effect [2]: 0.64 (0.41, 0.97) | All cause ER visit, hospitalization, or death: Pr (Superiority) [2]: 0.887 | All cause ER visit, hospitalization, or death: RR (95% CrI), estimated treatment effect [2]: 0.86 (0.68, 1.10) | All cause death or hospitalization due to COVID-19: Pr (Superiority) [2]: 0.927 | All cause death or hospitalization due to COVID-19: RR (95% CrI), estimated treatment effect [2]: 0.69 (0.41, 1.14) | Days of hospitalization: MD (95% CrI), estimated treatment effect [2]: −1.39 (−4.38, 1.20) | Days of hospitalization: Pr (Superiority) [2]: 0.8509 | Days on mechanical ventilation: MD (95% CrI), estimated treatment effect [2]: −4.47 (−6.89, 3.09) | Days on mechanical ventilation: Pr (Superiority) [2]: 0.9052 | Days to death for COVID-19: HR (95% CrI), estimated treatment effect [2]: 0.23 (0.01, 1.95) | Days to death for COVID-19: Pr (Superiority) [2]: 0.9040 | Days to hospitalization for COVID-19: HR (95% CrI), estimated treatment effect [2]: 0.57 (0.33, 0.99) | Days to hospitalization for COVID-19: Pr (Superiority) [2]: 0.9770 | Days to hospitalization or ER visit >6 h for COVID-19: HR (95% CrI), estimated treatment effect [2]: 0.47 (0.29, 0.74) | Days to hospitalization or ER visit >6 h for COVID-19: Pr (Superiority) [2]: 0.9992 | Days to hospitalization or death for COVID-19: HR (95% CrI), estimated treatment effect [2]: 0.61 (0.35, 1.07) | Days to hospitalization or death for COVID-19: Pr (Superiority) [2]: 0.9610 | Days to recovery: HR (95% CrI), estimated treatment effect [2]: 0.93 (0.83, 1.04) | Days to recovery: Pr (Superiority) [2]: 0.8862 | Death due to COVID-19: Pr (Superiority) [2]: 0.847 | Death due to COVID-19: RR (95% CrI), estimated treatment effect [2]: 0.42 (0.05, 2.06) | Death or hospitalization due to COVID-19: Pr (Superiority) [2]: 0.961 | Death or hospitalization due to COVID-19: RR (95% CrI), estimated treatment effect [2]: 0.63 (0.37, 1.05) | Hospitalization for COVID-19 (excluding those resulting in death): Pr (Superiority) [2]: 0.931 | Hospitalization for COVID-19 (excluding those resulting in death): RR (95% CrI), estimated treatment effect [2]: 0.67 (0.38, 1.14) | Hospitalization or ER (any duration) for COVID-19: Pr (Superiority) [2]: 0.992 | Hospitalization or ER (any duration) for COVID-19: RR (95% CrI), estimated treatment effect [2]: 0.72 (0.55, 0.94) | Hospitalization or ER >6 h for COVID-19: Pr (Superiority) [2]: 0.999 | Hospitalization or ER >6 h for COVID-19: RR (95% CI), estimated treatment effect [2]: 0.49 (0.30, 0.78) | Mechanical ventilation: Pr (Superiority) [2]: 0.716 | Mechanical ventilation: RR (95% CrI), estimated treatment effect [2]: 0.72 (0.21, 2.20) | All cause ER visit >6 h, hospitalization, or death: percentage [3]: (4.3%) | All cause ER visit >6 h, hospitalization, or death: total [3]: 30 | All cause ER visit, hospitalization, or death: percentage [3]: (13.9%) | All cause ER visit, hospitalization, or death: total [3]: 97 | All cause death or hospitalization due to COVID-19: percentage [3]: (3.2%) | All cause death or hospitalization due to COVID-19: total [3]: 22 | Days of hospitalization [3]: 0 days | Days on mechanical ventilation [3]: 0 days | Days to recovery: median [3]: 14 days | Death due to COVID-19: percentage [3]: (0.1%) | Death due to COVID-19: total [3]: 1 | Death or hospitalization due to COVID-19: percentage [3]: (2.9%) | Death or hospitalization due to COVID-19: total [3]: 20 | Hospitalization for COVID-19 (excluding those resulting in death): percentage [3]: (2.7%) | Hospitalization for COVID-19 (excluding those resulting in death): total [3]: 19 | Hospitalization or ER (any duration) for COVID-19: percentage [3]: (10.9%)
